The values that follow come from patent US20200087410A1 (GLYCOTOPE, published 2020).

The target of the experiment is T1, CD40 (immobilized CD40, antigen ELISA / surface plasmon resonance) (human, UniProt P25942 21-193, limits assumed).
T1 construct: also called TNFRSF5; TNF receptor super family member 5
Put plainly: immobilized CD40; screen by antigen ELISA and surface plasmon resonance (method of the KD not named). As to the method:
Following expression of the different constructs in NM-H9D8 and NM-H9D8-E6Q12 cells, the titer of the humanized antibody variants was determined and their concentration adjusted. Then, the humanized antibodies were screened in an antigen ELISA and via surface plasmon resonance.

T1 sequence (P25942 21-193 limits assumed): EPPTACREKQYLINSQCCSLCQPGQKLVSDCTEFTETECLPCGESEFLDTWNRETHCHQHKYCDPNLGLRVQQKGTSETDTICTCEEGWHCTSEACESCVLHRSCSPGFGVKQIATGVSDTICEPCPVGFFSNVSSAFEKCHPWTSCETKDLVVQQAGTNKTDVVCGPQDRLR

B1: humanized anti-CD40 antibody variant VH10/VL2 (as screened in Example 3) (antibody, V domains shown)
VH: EVQLVQSGAEVKKPGASVKISCKTSGYTFTEYIMHWVKQSPGKSLEWIGGIIPNNGGTSYNQKFKDRVTMTVDKSISTGYMELSRLRSDDTAVYYCTRREVYGRNYYALDYWGQGTLVTVSS
VL: DIQMTQSPSSLSASVGDRVTITCSASQGINNYLNWYQQKPGKAPKLLIYYTSSLHSGVPSRFSGSGSGTDYTFTISSLQPEDIATYYCQQYSNLPYTFGQGTKLEIKR
notes: Human gamma1 or gamma2 heavy constant region and human kappa constant region; also called hLob
Consider B1, for which binding was characterised by a dissociation constant (Kd) of 25 nM.
